# Reference: paper doi:10.1101/2022.07.11.499577 (bioRxiv, 2022)
# B1: Eaf1 (natural protein)
# chain: MSSRPSSAVPNSASLSEDQSSDRSKFPKADDLIDERDRKLTELYCVSRLNQLLELTDENKLRKEIDAFLKKNDIRRGIRFDEASLPKLLHTAATPITKKKLKDVNLINVPNQRLSDSKMSRELPENSENVSVKSESHFVPSHDNSIRENMMDSLRPAEKTGGMWNKRPLESTMGGEEERHEKRQKMQSQSLESSNNSEMASLPISPRPPVPNALAHYTYYENIEYPPADPTEVQPAVKFKDPLIKNIMAKEIDTSDHYNENNVDALETVFLLMNDYIPSKIPQALPLAELKYMSQTLPLINLIPRAHKALTTNIINNALNEARITVVGSRIEELRRLGLWSLRQPKRFIDPWKQHNTHQNILLEEAKWMQADFKEGHKYKVAICTAMAQAIKDYWTYGEICCVKRKTLLPGKENKLSDDGRISEKSGRPSDTSRNDSDISIAGKDDIGIIANVDDITEKESAAANDNDENGKNEAGAKSDFDFADGLLSQEGAHDQIISSIDTKLLLKKPSSSSEVVLIQHEVAASSALIETEESKKELAPPFKLSIFVDELNTFEKTLIQDLPLYNGINEERPKKDDSLPFIPISKSVVSLDDNGFYKLLERQLIDEEPSISQLSKRRGMFYGNRRNHYLRPPAVPSLRYLQNRTPTIWLSEDDQELVKNINTYGYNWELISAHMTHRLTYSYLSNIERRTPWQCFERFVQLNERFNFSDLKGPRAHSAQQWLIEAHKFQQRQNRRISPLGVNTESIQRGHRRLRWASMFEAIRKCMKKRENTPRPNPTQPRKPLDCKNMKVPTPAEMSLLKAQRDEALRRDIQLRRTVKNRLQQRQQQSQQAHSSRAQSPIPSNGKSSSNLARNGQASAPRPNQKQYTEQDIIESYSRKLLEQKPDIGPEMALKAAKNYYRTLREQQQQLKQHQIQQQRQQLQEESSHVQQLQQLQPGSQAPPPKSSPSQSSLSNISNINSAPRIKSPTPQEILQRFQKQ
# B2: Eaf2/Swc4 (natural protein)
# chain: MSSSDIFDVLNIKQKSRSPTNGQVSVPSSSAANRPKPQVTGMQRELFNLLGENQPPVVIKSGNNFKEKMLSTSKPSPWSFVEFKANNSVTLRHWVKGSKELIGDTPKESPYSKFNQHLSIPSFTKEEYEAFMNENEGTQKSVESEKNHNENFTNEKKDESKNSWSFEEIEYLFNLCKKYDLRWFLIFDRYSYNNSRTLEDLKEKFYYTCRNYFKASDPSNPLLSSLNFSAEKEIERKKYLQRLLSRSAAEIAEEEALVVESKKFEMAAKRTLAERESLLRLLDSPHSDQTITQYLTSQGMSQLYNALLADKTRKRKHDLNIPENPWMKQQQQFAQHRQLQQLNVKKSEVKENLSPKKTKRQRQEMQTALKRKSESAYAEQLLKDFNSDERKALGVITHGEKLSPGVYLRSTKLSTFKPALQNKILAILQELSLPSRPVMPSFDVMERQEELLKKINTLIDLKKHVDKYEAGMSITK
# B3: Epl1 with a TAP tag fused to the C-terminus (natural protein)
# chain: MPTPSNAIEINDGSHKSGRSTRRSGSRSAHDDGLDSFSKGDSGAGASAGSSNSRFRHRKISVKQHLKIYLPNDLKHLDKDELQQREVVEIETGVEKNEEKEVHLHRILQMGSGHTKHKDYIPTPDASMTWNEYDKFYTGSFQETTSYIKFSATVEDCCGTNYNMDERDETFLNEQVNKGSSDILTEDEFEILCSSFEHAIHERQPFLSMDPESILSFEELKPTLIKSDMADFNLRNQLNHEINSHKTHFITQFDPVSQMNTRPLIQLIEKFGSKIYDYWRERKIEVNGYEIFPQLKFERPGEKEEIDPYVCFRRREVRHPRKTRRIDILNSQRLRALHQELKNAKDLALLVAKRENVSLNWINDELKIFDQRVKIKNLKRSLNISGEDDDLINHKRKRPTIVTVEQREAELRKAELKRAAAAAAAAKAKNNKRNNQLEDKSSRLTKQQQQQLLQQQQQQQQNALKTENGKQLANASSSSTSQPITSHVYVKLPSSKIPDIVLEDVDALLNSKEKNARKFVQEKMEKRKIEDADVFFNLTDDPFNPVFDMSLPKNFSTSNVPFASIASSKFQIDRSFYSSHLPEYLKGISDDIRIYDSNGRSRNKDNYNLDTKRIKKTELYDPFQENLEIHSREYPIKFRKRVGRSNIKYVDRMPNFTTSSTKSACSLMDFVDFDSIEKEQYSREGSNDTDSINVYDSKYDEFVRLYDKWKYDSPQNEYGIKFSDEPARLNQISNDTQVIRFGTMLGTKSYEQLREATIKYRRDYITRLKQKHIQHLQQQQQQQQQQQQQAQQQKQKSQNNNSNSSNSLKKLNDSLINSEAKQNSSITQKNSS
# What was measured:
# Tra1 = Tra1 (S. cerevisiae, UniProt P38811 1-3744); assay: cryo-EM structure
# Eaf1 [1] = target: B1; assay: cryo-EM structure
# Eaf1 [2] = target: B1; assay: affinity purification with mass spectrometry
# Sequence of Tra1 (P38811 whole entry): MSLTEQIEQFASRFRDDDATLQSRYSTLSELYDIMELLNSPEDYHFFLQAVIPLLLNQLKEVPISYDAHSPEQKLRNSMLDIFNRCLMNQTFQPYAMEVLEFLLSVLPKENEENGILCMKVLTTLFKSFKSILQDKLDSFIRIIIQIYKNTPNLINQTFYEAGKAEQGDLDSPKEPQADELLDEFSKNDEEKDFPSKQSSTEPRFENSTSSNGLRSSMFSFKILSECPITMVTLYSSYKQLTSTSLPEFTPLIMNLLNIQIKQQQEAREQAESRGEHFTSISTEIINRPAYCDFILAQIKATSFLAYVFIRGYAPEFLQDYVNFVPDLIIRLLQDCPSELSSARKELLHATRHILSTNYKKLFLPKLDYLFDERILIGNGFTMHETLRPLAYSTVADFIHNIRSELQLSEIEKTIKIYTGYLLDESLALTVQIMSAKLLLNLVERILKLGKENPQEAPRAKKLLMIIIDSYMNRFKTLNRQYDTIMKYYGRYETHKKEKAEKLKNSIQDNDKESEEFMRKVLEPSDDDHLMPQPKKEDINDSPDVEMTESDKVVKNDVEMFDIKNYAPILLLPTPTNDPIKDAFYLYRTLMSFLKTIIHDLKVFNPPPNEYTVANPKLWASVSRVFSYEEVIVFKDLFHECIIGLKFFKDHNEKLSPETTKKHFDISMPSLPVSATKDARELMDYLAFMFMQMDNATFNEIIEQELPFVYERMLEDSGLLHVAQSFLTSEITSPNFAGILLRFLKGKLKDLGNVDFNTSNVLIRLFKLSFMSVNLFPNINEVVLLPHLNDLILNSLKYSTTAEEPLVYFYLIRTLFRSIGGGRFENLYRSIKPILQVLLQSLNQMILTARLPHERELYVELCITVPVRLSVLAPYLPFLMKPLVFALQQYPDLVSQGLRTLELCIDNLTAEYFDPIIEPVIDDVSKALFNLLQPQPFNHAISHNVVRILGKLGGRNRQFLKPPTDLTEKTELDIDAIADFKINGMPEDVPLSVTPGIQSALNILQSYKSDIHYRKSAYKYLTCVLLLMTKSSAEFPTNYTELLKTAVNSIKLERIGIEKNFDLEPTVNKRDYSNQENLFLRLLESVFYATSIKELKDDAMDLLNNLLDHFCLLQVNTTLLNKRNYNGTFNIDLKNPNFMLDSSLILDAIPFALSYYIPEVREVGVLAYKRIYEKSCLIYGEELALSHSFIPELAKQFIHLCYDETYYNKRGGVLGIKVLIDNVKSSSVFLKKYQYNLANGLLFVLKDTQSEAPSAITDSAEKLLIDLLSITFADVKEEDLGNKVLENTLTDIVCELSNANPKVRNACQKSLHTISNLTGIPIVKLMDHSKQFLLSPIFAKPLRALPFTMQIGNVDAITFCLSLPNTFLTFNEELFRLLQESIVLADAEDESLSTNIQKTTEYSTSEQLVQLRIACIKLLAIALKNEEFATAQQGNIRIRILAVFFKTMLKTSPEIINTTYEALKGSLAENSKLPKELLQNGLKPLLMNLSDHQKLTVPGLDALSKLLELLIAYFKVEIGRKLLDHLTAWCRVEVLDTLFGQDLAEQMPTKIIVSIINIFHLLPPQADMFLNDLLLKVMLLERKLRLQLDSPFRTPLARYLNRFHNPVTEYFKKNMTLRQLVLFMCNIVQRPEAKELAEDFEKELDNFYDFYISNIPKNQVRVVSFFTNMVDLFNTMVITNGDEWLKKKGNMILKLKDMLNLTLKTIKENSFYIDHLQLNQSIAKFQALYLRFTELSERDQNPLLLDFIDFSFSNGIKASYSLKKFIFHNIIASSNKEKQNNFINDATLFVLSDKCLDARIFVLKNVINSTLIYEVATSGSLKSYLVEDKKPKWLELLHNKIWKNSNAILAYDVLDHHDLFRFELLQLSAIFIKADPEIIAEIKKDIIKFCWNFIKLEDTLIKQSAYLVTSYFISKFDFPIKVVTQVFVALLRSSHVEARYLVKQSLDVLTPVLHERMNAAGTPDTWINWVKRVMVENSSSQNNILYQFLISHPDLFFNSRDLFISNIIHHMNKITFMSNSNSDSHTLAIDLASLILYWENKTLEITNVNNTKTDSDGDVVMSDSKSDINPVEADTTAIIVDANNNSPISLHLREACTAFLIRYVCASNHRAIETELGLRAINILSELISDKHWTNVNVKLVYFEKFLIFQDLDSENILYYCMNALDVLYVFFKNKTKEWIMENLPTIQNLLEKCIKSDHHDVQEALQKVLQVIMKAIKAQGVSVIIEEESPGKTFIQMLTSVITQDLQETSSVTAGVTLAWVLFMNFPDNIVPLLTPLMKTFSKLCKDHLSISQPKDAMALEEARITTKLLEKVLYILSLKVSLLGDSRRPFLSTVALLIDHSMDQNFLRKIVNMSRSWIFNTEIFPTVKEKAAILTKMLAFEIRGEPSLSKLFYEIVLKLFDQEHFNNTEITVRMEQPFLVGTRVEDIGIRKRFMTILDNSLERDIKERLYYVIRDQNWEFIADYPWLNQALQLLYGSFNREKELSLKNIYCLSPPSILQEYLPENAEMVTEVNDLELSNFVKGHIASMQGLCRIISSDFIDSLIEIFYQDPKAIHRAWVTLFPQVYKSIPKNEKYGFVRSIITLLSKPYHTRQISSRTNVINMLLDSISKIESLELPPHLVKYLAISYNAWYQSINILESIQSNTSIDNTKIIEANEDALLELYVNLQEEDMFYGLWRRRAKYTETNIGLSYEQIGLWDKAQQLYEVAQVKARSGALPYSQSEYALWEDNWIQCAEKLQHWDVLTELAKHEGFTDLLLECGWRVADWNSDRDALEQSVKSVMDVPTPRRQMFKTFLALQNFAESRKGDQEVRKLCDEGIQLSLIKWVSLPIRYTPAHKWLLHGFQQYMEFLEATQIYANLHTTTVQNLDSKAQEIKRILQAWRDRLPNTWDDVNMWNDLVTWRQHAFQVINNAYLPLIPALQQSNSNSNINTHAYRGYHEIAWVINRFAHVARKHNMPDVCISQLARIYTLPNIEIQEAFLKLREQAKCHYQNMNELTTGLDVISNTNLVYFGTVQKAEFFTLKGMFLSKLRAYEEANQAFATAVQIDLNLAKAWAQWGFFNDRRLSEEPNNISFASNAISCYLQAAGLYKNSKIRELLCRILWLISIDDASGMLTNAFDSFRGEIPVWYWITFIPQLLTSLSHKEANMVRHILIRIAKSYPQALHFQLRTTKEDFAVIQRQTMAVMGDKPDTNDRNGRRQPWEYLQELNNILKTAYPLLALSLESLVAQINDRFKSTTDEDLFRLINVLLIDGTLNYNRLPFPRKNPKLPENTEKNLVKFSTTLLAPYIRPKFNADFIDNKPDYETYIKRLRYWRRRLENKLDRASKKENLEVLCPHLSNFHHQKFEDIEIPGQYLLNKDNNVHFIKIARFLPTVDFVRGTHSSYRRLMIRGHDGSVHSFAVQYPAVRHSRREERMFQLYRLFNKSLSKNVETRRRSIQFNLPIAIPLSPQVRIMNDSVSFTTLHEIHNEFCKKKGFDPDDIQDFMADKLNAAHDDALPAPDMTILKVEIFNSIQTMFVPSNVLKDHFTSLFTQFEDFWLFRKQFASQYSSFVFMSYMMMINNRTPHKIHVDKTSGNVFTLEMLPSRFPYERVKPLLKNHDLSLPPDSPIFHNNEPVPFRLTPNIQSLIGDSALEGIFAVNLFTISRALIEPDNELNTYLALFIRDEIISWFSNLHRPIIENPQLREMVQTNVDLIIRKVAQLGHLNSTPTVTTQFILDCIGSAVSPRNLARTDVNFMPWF
binding result (Tra1),binding result (Eaf1 [1]),binding result (Eaf1 [2]),Binder
binds,–,–,B1
binds,binds,–,B2
–,–,binds,B3
